Two substances from PMC11952670 can be followed below.

In experiment [1] the target is C-terminal domain of F-BclA (F-BclA-CTD) (Bacillus thuringiensis subsp. kurstaki). Kind of experiment: crystal structure; F-BclA-CTD; 1M LiCl, 0.1M citrate pH 4.0, 20% (w/v) PEG 6000; P321.
Experiment [2] addresses ExsF, first 23 residues replaced by a 6xHis tag (B. paranthracis). Kind of experiment: crystal structure; co-crystallisation of 6xHis-ExsF with the synthetic F-Anchor peptide; 5% v/v T-mate pH 7, 0.1 M sodium cacodylate pH 5.3, 15% v/v PEG smear broad, 10% v/v ethylene glycol; 1.92 Å, P21.

Usually stoichiometry N stands for a count of units in the complex or per binding partner. “C-terminal domain of F-BclA (F-BclA-CTD) (domain or fragment)” yielded a stoichiometry N in experiment [1] of 3.

For “ExsF, first 23 residues replaced by a 6xHis tag (domain or fragment)”, the stoichiometry N in experiment [2] stood at 3.
